Numbering of substitutions follows the chain as printed.
B1: Clone 4.16 (bispecific antibody)
heavy 1: not shown
heavy 2: QVQLVQSGTEVKKPGASVKVSCKASGYTFTGYYMNWVRQAPGQGLEWVGWINPNSGDTNFAQKFQGRVTMTRDSSISTAYMELSRLRSDDTAVYYCARQFRGYSYGYGMDVWGKGTTVTVSSASTKGPSVFPLAPSSKSTSGGTAALGCLVKDYFPEPVTVSWNSGALTSGVHTFPAVLQSSGLYSLSSVVTVPSSSLGTQTYICNVNHKPSNTKVDKKVEPKSCDKTHTCPPCPAPEAAGGPSVFLFPPKPKDTLMISRTPEVTCVVVDVSHEDPEVKFNWYVDGVEVHNAKTKPREEQYNSTYRVVSVLTVLHQDWLNGKEYKCKVSNKALPAPIEKTISKAKGQPREPQVCTLPPSRDELTKNQVSLSCAVKGFYPSDIAVEWESNGQPENNYKTTPPVLDSDGSFFLVSKLTVDKSRWQQGNVFSCSVMHEALHNHYTQKSLSLSPG
light: not shown
B2: Clone 4.17 (bispecific antibody)
heavy 1: not shown
heavy 2: QLQLQESGPGLVKPSETLSLTCTVSGGSISSSTYYWGWIRQPPGKGLEWIGSIFYSGNTYYNPSLKSRVTISVDTSKNQFSLRLNSVTAADTAVYYCAREIIEPRPGYFDYWGQGTLVTVSSASTKGPSVFPLAPSSKSTSGGTAALGCLVKDYFPEPVTVSWNSGALTSGVHTFPAVLQSSGLYSLSSVVTVPSSSLGTQTYICNVNHKPSNTKVDKKVEPKSCDKTHTCPPCPAPEAAGGPSVFLFPPKPKDTLMISRTPEVTCVVVDVSHEDPEVKFNWYVDGVEVHNAKTKPREEQYNSTYRVVSVLTVLHQDWLNGKEYKCKVSNKALPAPIEKTISKAKGQPREPQVCTLPPSRDELTKNQVSLSCAVKGFYPSDIAVEWESNGQPENNYKTTPPVLDSDGSFFLVSKLTVDKSRWQQGNVFSCSVMHEALHNHYTQKSLSLSPG
light: not shown
B3: Clone 4.18 (bispecific antibody)
heavy 1: not shown
heavy 2: B2 heavy 2
light: not shown
B4: Clone 3.4 (antibody, V domains shown)
VH: EVQLVESGGGLVKPGGSLRLSCVASGFTFSLAWMNWVRQAPGKGLEWVGHIKSRADGGSTDYAAPVKGRFTISRDDSKNTLYLHMNSLKTEDTAVYFCSRFYWNYVLDYWGQGTLVTVSS
VL: DIQMTQSPSSLSASVGDRVTITCRASQSINSYFNWYQQKPGKAPKLLIYAASGLQSGVPSRFSGSGSGTDFTLTISSLQPEDFATYYCQQSYSPPYTFGQGTNLEIK
notes: anti-FAP mAb (bivalent)
B5: Clone 3.1 (antibody, V domains shown)
VH: QLQLQESGPGLVKPSETLSLTCTVSGGSISSSTYYWGWIRQPPGKGLEWIGSIFYSGNTYYNPSLKSRVTISVDTSKNQFSLRLNSVTAADTAVYYCAREIIEPRPGYFDYWGQGTLVTVSS
VL: B4 VL with N30S, S31K, F33L, L46F, G53S, Y92N, P94I, Y96R, N103K, L104V
notes: anti-FAP mAb (bivalent)
B6: Clone 3.2 (antibody, V domains shown)
VH: QVQLVQSGAEVKKPGASVKVSCKASGYTFTGYYMHWVRQAPGQGLEWMGWIYPNTGGTNYAQNFQGRVTMTRDTSISTAYMELSSLRSDDTAVYYCARDDYNKNLDYWGQGTLVTVSS
VL: DIQMTQSPSTLSASVGDRGTITCRASQSIGSWLAWYQQKPGKTPKLLIYKASSLESGVPSRFSGSGSGTEFTLTISSLQPDDFATYYCQQYNSYFRTFGQGTKVEIK
notes: anti-FAP mAb (bivalent)
B7: Clone 3.3 (antibody, V domains shown)
VH: QVQLVQSGTEVKKPGASVKVSCKASGYTFTGYYMNWVRQAPGQGLEWVGWINPNSGDTNFAQKFQGRVTMTRDSSISTAYMELSRLRSDDTAVYYCARQFRGYSYGYGMDVWGKGTTVTVSS
VL: DIQMTQSPSSLSASVGDRVTITCRASQNIGSYLNWYQQKPGKAPKLLIYAASSLQSGVPSRFSGSGSGTDFTLTISSLQPEDFATYYCQQANSFPFTFGPGTKVDIK
notes: anti-FAP mAb (bivalent)
B8: Clone 1.1 (VHH, not shown: small tags and cut ends)
VHH: EVQLVESGGGLVQPGGSLRLSCAASGRFFGIYDMYWYRQPPGKQRELVAISTSGGHTNYADSVKGRFTISRDNAKNTVYLQMNSLRPEDTAVYYCNIQRVDAPGMYWGQGTLVTV
notes: monovalent anti-LTBR VHH; also called 1.1 (parental clone for 1.7)
B9: Clone 1.2 (VHH, not shown: small tags and cut ends)
VHH: EVQLVESGGGLVQPGGSLRLSCAASGSSIFSFEIMAWYRQAPGKQRELVAVINKGGEANYPDSVEGRFTISRDNAKNTVYLQMNSLRPEDTAVYYCNADAVPHGSYWGQGTLVTVSS
notes: monovalent anti-LTBR VHH; also called 1.2 (parental clone for 1.5)
B10: Clone 1.3 (VHH, not shown: small tags and cut ends)
VHH: EVQLVESGGGLVQPGGSLRLSCAASGRTFTNYRMAWFRQAPGKEREAVAAINWNGGGTYYADSVKGRFTISRDNAKNTVYLQMNSLRPEDTAVYYCAADSTGWGSYFDYWGQGTLVTVSS
notes: monovalent anti-LTBR VHH; also called 1.3 (parental clone for 1.8)
B11: Clone 1.4 (VHH, not shown: small tags and cut ends)
VHH: EVQLVESGGGLVQPGGSLRLSCKASGTTFSDRAFGWYRQAPGKQRELVATISTAGLTWYDVSVKGRFIISRDNPENTVYLQMNSLRPEDTAVYYCNTFRGNWGQGTLVTVSS
notes: monovalent anti-LTBR VHH; also called 1.4 (parental clone for 1.6)

Molecular target: T1, human LTBR endogenously expressed on cells (HepG2, A549, A375, HCC1187, RPMI-7951, primary human breast CAFs) (human, UniProt P36941 31-435)
Assay: cell-based or functional assay

T1 sequence (P36941 31-435): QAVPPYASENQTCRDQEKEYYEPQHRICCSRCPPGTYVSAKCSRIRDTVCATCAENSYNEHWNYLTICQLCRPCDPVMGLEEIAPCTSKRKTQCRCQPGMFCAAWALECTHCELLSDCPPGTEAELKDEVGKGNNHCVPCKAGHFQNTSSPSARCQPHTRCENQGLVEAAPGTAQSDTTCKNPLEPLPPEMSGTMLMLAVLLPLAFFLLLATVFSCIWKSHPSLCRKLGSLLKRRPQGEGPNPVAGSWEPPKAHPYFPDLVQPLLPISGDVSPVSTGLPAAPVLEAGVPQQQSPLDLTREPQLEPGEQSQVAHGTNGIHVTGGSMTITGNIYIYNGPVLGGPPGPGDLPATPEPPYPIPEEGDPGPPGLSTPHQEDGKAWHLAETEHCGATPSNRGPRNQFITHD

Row | Binder | HepG2 Reporter assay, HepG2:FAP-CHO-K1 Co-culture EC50
1 | B1 | 0.016 nM
2 | B2 | 0.017 nM
3 | B3 | 0.023 nM

Molecular target: T1, human LTBR endogenously expressed on …
Assay: cell-based or functional assay
Remark: another data set of the same source

Row | Binder | CCL19 upregulation, HCC1187:CAF Co-culture EC50
4 | B1 | 0.09 nM
5 | B2 | 0.06 nM
6 | B3 | 0.12 nM

Molecular target: T2, human FAP expressed on cells (transfected HEK293; FAP-CHO-K1 recombinant cell line, BPS cat no. 79947) (human, UniProt Q12884 1-760)
T2 construct: also called HuFAP-HEK293; Hek-FAP
Assay: flow cytometry, HEK293-FAP overexpressing cells

Row | Binder | EC50
7 | B1 | 0.4 nM
8 | B2 | 0.8 nM
9 | B3 | 1 nM

Molecular target: T2, human FAP expressed on cells …
Assay: flow cytometry, human FAP-transfected HEK293 cells
Protocol: The binding of antibodies to human FAP expressed on transfected HEK293 cells was measured by FACS. In addition, binding to parental HEK293 was tested to confirm antibody specificity. In short, the cells were resuspended in the FACS binding buffer and live/dead efluro450 viability dye was added at a 1:1000 dilution to the cell suspension, followed by incubation at room temperature in the dark for 30 minutes. The cells were then diluted to 2 e5/ml, and 100 ul was added to wells of a 96-well U-bottom plate as required. […] The cells were pelleted by centrifugation, and the supernatant was discarded, followed by the addition of a series of dilutions of anti-FAP antibodies and incubation for 45 minutes at 4° C. in the dark. Cells were washed two times with PBS with 3% (w/v) BSA before adding 60 ul of fluorescently labelled secondary antibody (goat anti-human IgG) diluted to 1:200 in PBS. Incubation continued at 4 C for at least 30 minutes, followed by two washes in PBS pH 7.4. Cells were either fixed with 2% PFA (30 minutes at 4° C.) followed by washout and storage in 100 ul of PBS or immediately analysed on a Flow Cytometer. The data was analysed using FloJo V10 and GraphPad Prism. No binding to the HEK parental cell line was detected for any tested clones, confirming the specific interaction between anti-FAP antibodies and the FAP receptor. The results are summarised in.

Row | Binder | EC50
10 | B4 | 1.1 nM
11 | B5 | 1.7 nM
12 | B6 | 0.7 nM
13 | B7 | 0.6 nM

Molecular target: T3, human recombinant LTBR fused on human Fc (SinoBiological, cat. #10581-H02H) (human, UniProt P36941 31-227)
T3 construct: bought protein; also called human LTBR human IgG1 Fc chimera protein; not shown: human IgG1 Fc
Assay: SPR (Biacore T200), LTBR-Fc on CM5 chip, periplasmic extract as analyte
Protocol: (§1) To confirm species cross-reactivity, either human or cynomolgus recombinant LTBR-fused on human Fc (SinoBiological, cat. #10581-H02H and 90101-C02H) were immobilised on CM5 sensor chips (cat. #CFJB 334). 1:5 dilutions of crude periplasmic extracts of clones expressing VHHs were injected at 30 μl/min for 2 min in HBS-EP pH 7.4 buffer to allow for binding to chip-bound antigen. Next, an HBS-EP pH7.4 buffer without VHHs was injected for 5 minutes at the same flow rate to enable spontaneous dissociation of bound VHHs. Surface regeneration was done with 10 ul of 1 mM Glycine pH 1.5/1 M NaCl injected twice between samples. From the sensorgrams obtained on a BiacoreT200 machine, koff values were calculated by fitting a 1:1 interaction model (Langmuir model) using Insight Evaluation Software (Biacore). Based on this analysis, four clones were selected for further evaluation, and the results are included in.

T3 sequence (P36941 31-227 limits assumed): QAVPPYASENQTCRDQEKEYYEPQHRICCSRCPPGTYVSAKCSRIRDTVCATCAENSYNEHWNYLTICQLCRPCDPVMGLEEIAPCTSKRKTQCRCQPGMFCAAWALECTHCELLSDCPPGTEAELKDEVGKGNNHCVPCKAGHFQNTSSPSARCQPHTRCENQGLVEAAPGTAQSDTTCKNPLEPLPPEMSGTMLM

Row | Binder | koff
14 | B8 | 0.0008 s⁻¹
15 | B9 | 0.00069 s⁻¹
16 | B10 | 0.0038 s⁻¹
17 | B11 | 0.0018 s⁻¹

Molecular target: T4, cynomolgus recombinant LTBR fused on human Fc (SinoBiological, cat. #90101-C02H) (cynomolgus (Macaca fascicularis), UniProt P36941 31-227 (human entry))
T4 construct: bought protein
Assay: as above
Protocol: as §1

T4 sequence (P36941 other isoform, or with tags, fused parts or gaps C02H C02H limits assumed): as the sequence (P36941 31-227 limits assumed) above, with A2V, A7G, Q24R, I45S, N163D, K181R, L184S, P186S counted along it

Row | Binder | koff
18 | B8 | 0.0014 s⁻¹
19 | B9 | 0.0026 s⁻¹
20 | B10 | 0.0031 s⁻¹
21 | B11 | 0.00097 s⁻¹

Molecular target: T5, cyno FAP His (Acro), recombinant protein (cynomolgus (Macaca fascicularis), UniProt Q12884 26-760 (human entry))
T5 construct: bought protein used as analyte on Carterra LSA
Assay: SPR (Carterra LSA), antibody captured by anti-human Fc, FAP as analyte
Protocol: (§2) Binding of anti-FAP antibodies to human and cynomolgus FAP was investigated by Surface Plasmon Resonance (SPR) on Carterra LSA. An EC30M chip was used to capture the test antibodies. The chip was activated for bioconjugation using EDC and sNHS in MES pH 5.5 to prepare the chip for amine coupling. Goat anti-human IgG Fc antibody was then captured to the chip via incubation for 10 minutes. Excess conjugation sites were quenched with 1M Ethanolamine pH 8. To measure monovalent binding kinetics, antibodies were printed/spotted onto the chip and allowed to bind to the goat antibody, followed by subsequent washing. After the preparation, the printed chip was exposed to repeated rounds of association and dissociation with increasing analyte concentrations. In this work, recombinant proteins (Human FAP (Acro) or cyno FAP His (Acro)) were serially diluted across a range starting at 1500 nM with 3-fold dilutions and 10 points. The curves were fitted to global fit in a 1:1 binding model to obtain KD values. The binding affinity to both human and cynomolgus FAP is reported in.

Row | Binder | Kd
22 | B4 | 0.03 nM
23 | B5 | 0.051 nM
24 | B6 | 0.028 nM
25 | B7 | 0.021 nM

Molecular target: Human FAP (Acro), recombinant protein (human, UniProt Q12884 26-760)
Assay: as above
Protocol: as §2

Row | Binder | Kd
26 | B4 | 0.033 nM
27 | B5 | 0.04 nM
28 | B6 | 0.047 nM
29 | B7 | 0.023 nM

Molecular target: T1, human LTBR endogenously expressed on …
Assay: flow cytometry, HepG2 cells, VHH detected by anti-FLAG
Protocol: The purified proteins were tested for binding to endogenously expressed human LTBR in HepG2 cells. The expression level was confirmed with anti-LTBR clone CBE-11 (“huCBE11” as disclosed in WO2004002431). The HepG2 cells were resuspended to a final concentration of 1.0×10⁶ cells/ml in FACS buffer. A series dilution of purified VHHs was incubated with mouse anti-FLAG biotinylated antibody (Sigma Aldrich, cat. #F9291-1MG) at 5 μg/ml in FACS buffer for 30 min at RT with shaking. Cell suspensions were distributed into a 96-well v-bottom plate and incubated with the above-described VHH/antibody mixture for 1 hour on ice while shaking. VHH binding to cells was detected with streptavidin R-PE (Invitrogen, cat. #.SA10044) at 1:400 dilution (0.18 μg/ml) in FACS buffer, incubated for 30 minutes on ice with shaking and protection from light. The cells were acquired by flow cytometry. The data was analysed using FloJo V10 and GraphPad Prism. The EC50 values can be found in.

Row | Binder | EC50
30 | B8 | 0.41 nM
31 | B9 | 1.6 nM
32 | B10 | 1.2 nM
33 | B11 | 2.3 nM

Molecular target: T1, human LTBR endogenously expressed on …
Assay: cell-based or functional assay
Remark: another data set of the same source

Row | Binder | chemokine (CCL5) induction in RPMI-7951 EC50
34 | B1 | 0.0078 nM
35 | B2 | 0.01 nM
36 | B3 | 0.067 nM

From patent US20260176336A1 (MESTAG THERAPEUTICS, published 2026)
